Test results reported in paper PMC6384901, “Cyclic Peptide-Based Sirtuin Substrates” (Molecules, 2019).

Columns and labels:
Assay type in all cases: biochemical, human
[1] = substrate: CSCC[C@H](NC(=O)[C@@H]1CCCCNC(=O)CCC(=O)NCCCC[C@H](NC(C)=O)C(=O)N[C@@H](CCCCN)C(=O)N[C@@H](CCCCNC(C)=O)C(=O)N1)C(N)=O; assay: HPLC-based sirtuin deacylation activity assay, SIRT2; conditions: other: substrate activity with SIRT2, 50 mM Hepes pH 8.0, 0.5 mM β-NAD+, His6-SIRT2 297 nM, 37 °C, 2 min, HPLC 214 nm, Michaelis-Menten fit
Experimental: (§1) The steady-state kinetic parameters (kcat and KM) for the SIRT1/2/3 substrate activities of the purified 5–8 were determined with a HPLC-based sirtuin deacylation activity assay and are recorded in Table 2 and Table 3. As judged by kcat/KM ratios, cyclic peptides 5–8 were all found to be excellent SIRT1 substrates, actually 5, 7, and 8 are all better SIRT1 substrates than the linear hexapeptide-based SIRT1 substrate 3 (depicted in Figure 2) reported in the current literature (kcat/KM = 800 M^−1 s^−1). Cyclic peptides 5–8 were also all found to be better SIRT3 substrates than the linear hexapeptide-based SIRT3 substrate 3 reported in the current literature (kcat/KM = 990 M^−1·s^−1).
(§2) The following materials were obtained from commercial sources for the in vitro sirtuin deacylation activity assay and the pronase digestion assay, and were used as received. Sigma-Aldrich China: the active human recombinant His6-SIRT1, Trizma, Hepes, β-NAD^+, a 1.0 M solution of MgCl2 (molecular-biology grade), the pronase from Streptomyces griseus; Cayman Chemical (Ann Arbor, MI, USA): the active human recombinant GST-SIRT1, the active human recombinant His6-SIRT2, the active human recombinant His6-SIRT3; TCI Shanghai: DL-dithiothreitol (DTT); Alfa Aesar China: NaCl, KCl.
(§3) A sirtuin deacylation assay solution contained the following: 50 mM Hepes (pH 8.0), 137 mM NaCl, 2.7 mM KCl, 1 mM MgCl2, 1 mM DTT, β-NAD^+ (~5.6 × KM: 0.5 mM for the SIRT1 and SIRT2 assays, 3.5 mM for the SIRT3 assay), one test compound (5, 6, 7, or 8) with varied concentrations including 0, and a sirtuin (His6-SIRT1 or GST-SIRT1, 243 nM; His6-SIRT2, 297 nM; or His6-SIRT3, 739 nM). An enzymatic reaction was initiated by the addition of a sirtuin at 37 °C and was incubated at 37 °C for 5 min (for the SIRT1 assay) or 2 min (for the SIRT2 and SIRT3 assays) until quenched with the following stop solution: 100 mM HCl and 0.16 M acetic acid. The quenched assay solutions were directly injected into a C18 column (0.46 × 25 cm, 5 μm), and the column was eluted with a gradient of ddH2O containing 0.05% (v/v) TFA and acetonitrile containing 0.05% (v/v) TFA at 1 mL/min and was monitored at 214 nm. Turnover of the limiting substrate was kept at <10%. Stock solutions of the test compounds were all prepared in ddH2O. The integrated product and substrate HPLC peak areas were then used to determine the initial velocities for the sirtuin-catalyzed deacylation reaction at different concentrations of a test compound (5, 6, 7, or 8). The initial velocity-concentration data were analyzed with KaleidaGraph® (Synergy Software, Reading, PA, USA) and the data were fitted to the Michaelis-Menten equation to obtain the kinetic parameters kcat and KM, as recorded in Table 2 and Table 3.

[2] = substrate: CCCCCCCCCCCCCC(=O)NCCCC[C@@H]1NC(=O)[C@H](CCCNC(=N)N)NC(=O)[C@@H](NC(C)=O)CCCCNC(=O)CCCCCCC(=O)NCCCC[C@@H](C(=O)N[C@H](C(N)=O)[C@@H](C)O)NC1=O; assay: as above; conditions: other: substrate activity with SIRT2, 50 mM Hepes pH 8.0, 0.5 mM β-NAD+, His6-SIRT2 297 nM, 37 °C, 2 min, HPLC 214 nm, Michaelis-Menten fit
Experimental: as §1, §2, §3

[3] = substrate: CSCC[C@H](NC(=O)[C@@H]1CCCCNC(=O)CNC(=O)CCCCCCC(=O)NCC(=O)NCCCC[C@H](NC(C)=O)C(=O)N[C@@H](CCCCN)C(=O)N[C@@H](CCCCNC(C)=O)C(=O)N1)C(N)=O; assay: as above; conditions: other: substrate activity with SIRT2, 50 mM Hepes pH 8.0, 0.5 mM β-NAD+, His6-SIRT2 297 nM, 37 °C, 2 min, HPLC 214 nm, Michaelis-Menten fit
Experimental: as §1, §2, §3

[4] = substrate: CSCC[C@H](NC(=O)[C@@H]1CCCCNC(=O)CCC(=O)NCCCC[C@H](NC(C)=O)C(=O)N[C@@H](CCCCN)C(=O)N[C@@H](CCCCNC(C)=O)C(=O)N1)C(N)=O; assay: HPLC-based sirtuin deacylation activity assay, SIRT3; conditions: other: substrate activity with SIRT3, 50 mM Hepes pH 8.0, 3.5 mM β-NAD+, His6-SIRT3 739 nM, 37 °C, 2 min, HPLC 214 nm, Michaelis-Menten fit
Experimental: as §1, §2, §3

[5] = substrate: CCCCCCCCCCCCCC(=O)NCCCC[C@@H]1NC(=O)[C@H](CCCNC(=N)N)NC(=O)[C@@H](NC(C)=O)CCCCNC(=O)CCCCCCC(=O)NCCCC[C@@H](C(=O)N[C@H](C(N)=O)[C@@H](C)O)NC1=O; assay: as above; conditions: other: substrate activity with SIRT3, 50 mM Hepes pH 8.0, 3.5 mM β-NAD+, His6-SIRT3 739 nM, 37 °C, 2 min, HPLC 214 nm, Michaelis-Menten fit
Experimental: as §1, §2, §3

[6] = substrate: CSCC[C@H](NC(=O)[C@@H]1CCCCNC(=O)CNC(=O)CCCCCCC(=O)NCC(=O)NCCCC[C@H](NC(C)=O)C(=O)N[C@@H](CCCCN)C(=O)N[C@@H](CCCCNC(C)=O)C(=O)N1)C(N)=O; assay: as above; conditions: other: substrate activity with SIRT3, 50 mM Hepes pH 8.0, 3.5 mM β-NAD+, His6-SIRT3 739 nM, 37 °C, 2 min, HPLC 214 nm, Michaelis-Menten fit
Experimental: as §1, §2, §3

B1: human recombinant His6-SIRT2 (Homo sapiens) (protein)
chain: MAEPDPSHPLETQAGKVQEAQDSDSDSEGGAAGGEADMDFLRNLFSQTLSLGSQKERLLDELTLEGVARYMQSERCRRVICLVGAGISTSAGIPDFRSPSTGLYDNLEKYHLPYPEAIFEISYFKKHPEPFFALAKELYPGQFKPTICHYFMRLLKDKGLLLRCYTQNIDTLERIAGLEQEDLVEAHGTFYTSHCVSASCRHEYPLSWMKEKIFSEVTPKCEDCQSLVKPDIVFFGESLPARFFSCMQSDFLKVDLLLVMGTSLQVQPFASLISKAPLSTPRLLINKEKAGQSDPFLGMIMGLGGGMDFDSKKAYRDVAWLGECDQGCLALAELLGWKKELEDLVRREHASIDAQSGAGVPNPSTSASPKKSPPPAKDEARTTEREKPQ
notes: His6; purchased Cayman Chemical
B1 was tested, and the Km [1] was 49.7 ± 7.78 µM, the kcat [1] was 138.9 ± 26.7 10^−3, s^−1 and the kcat/Km [1] was “(2.79 ± 0.1) × 10^3 M^−1·s^−1”. For the same protein, the Km [2] was 37.6 ± 14.4 µM, the kcat [2] was 90.9 ± 2.62 10^−3, s^−1 and the kcat/Km [2] was “(2.6 ± 0.93) × 10^3 M^−1·s^−1”. For the same protein, the Km [3] was 11.6 ± 2.2 µM, the kcat [3] was 36.0 ± 4.9 10^−3, s^−1 and the kcat/Km [3] was “(3.2 ± 1.0) × 10^3 M^−1·s^−1”.

B2: human recombinant His6-SIRT3 (Homo sapiens) (protein)
chain: MAFWGWRAAAALRLWGRVVERVEAGGGVGPFQACGCRLVLGGRDDVSAGLRGSHGARGEPLDPARPLQRPPRPEVPRAFRRQPRAAAPSFFFSSIKGGRRSISFSVGASSVVGSGGSSDKGKLSLQDVAELIRARACQRVVVMVGAGISTPSGIPDFRSPGSGLYSNLQQYDLPYPEAIFELPFFFHNPKPFFTLAKELYPGNYKPNVTHYFLRLLHDKGLLLRLYTQNIDGLERVSGIPASKLVEAHGTFASATCTVCQRPFPGEDIRADVMADRVPRCPVCTGVVKPDIVFFGEPLPQRFLLHVVDFPMADLLLILGTSLEVEPFASLTEAVRSSVPRLLINRDLVGPLAWHPRSRDVAQLGDVVHGVESLVELLGWTEEMRDLVQRETGKLDGPDK
notes: as for B1
With B2 the Km [4] was 34.9 ± 4.04 µM, the kcat [4] was 155.3 ± 16.6 10^−3, s^−1 and the kcat/Km [4] was “(4.51 ± 1.0) × 10^3 M^−1·s^−1”. The Km [5] was 4.2 ± 0.38 µM, the kcat [5] was 60.0 ± 2.8 10^−3, s^−1 and the kcat/Km [5] was “(14.3 ± 0.66) × 10^3 M^−1·s^−1”. The Km [6] was 4.5 ± 0.9 µM, the kcat [6] was 15.8 ± 1.4 10^−3, s^−1 and the kcat/Km [6] was “(3.6 ± 0.4) × 10^3 M^−1·s^−1”.
